{"source": "paper PMC6408466", "about": "“Inner lumen proteins stabilize doublet microtubules in cilia and flagella” (Nature Communications, 2019)", "binders": {"B1": {"name": "FAP52 (flagellar-associated protein 52) (natural protein, UniProt A8ILK1 1-615, looked up)", "chain": "MAEPLVLNSVIGFGGAIENGLIAHPDGRTIIYPLGSTIVLRDRADPRSQEFLQGHSDKVSCLALSRSGRYLASGQITYMGFTADIIIWDLESKQLIHRMALHKVKVQALDFSCDERFLASLGGQDDNALVLWDVASGNAICGSPCNTNFTNCVKFFNNSPDKLITAGNFNMNVWTYDAGNNKLRPTDATLGTLKRVFKSVVVDANDEYAYCGTTTGDVLQIALERVLFKNTGPAKGNVQMGVTATCEVPTGDILVGGGDGSLQLLRKMPALAGTKVEGAITSIALADMNARGFTFFVGTAMCNIYKPATSRLKEELVQTAHNDKINGMAFPNEYSEVFATCGTGFIRLWHLTTCRELLRIAVPNLECFCIAFTTDGSAILSGWSDGKIRAFGPQSGKIIFTINDAHQKAVTAIASTADSSRILSGGEEGMVRVWRIGRTSQTLEASMKDHKGPVNCIRIKGSGDECVSASSDGSCILWDLHTFKRRTSLFANTFFKSVVYHPDESQLVTAGTDRKVTYWDAYDGNAIRIIDGSDLDEVNALAVDRDGEALVSGGGDKLVKLWGYDEGHCYFVGVAHSGAITAVGVTPDKQRIVSVGTEGGIFIWDYQRPQTLADI", "notes": "FAP52 of Chlamydomonas, ortholog of human WDR16, ~66 kDa, WD40 repeat protein; endogenous protein in the axoneme; also called FAP52/WDR16; MIP3a; source: endogenous, isolated wild type Chlamydomonas axonemes"}}, "biological_target": "T1, FAP45 (flagellar-associated protein 45) (Chlamydomonas (endogenous in wild type …, UniProt A8I9E8 1-501))", "T1 construct": "FAP45 of Chlamydomonas, a coiled-coil protein of 501 amino acids, predicted ~59 kDa; endogenous protein in the axoneme; also called FAP45/CCDC19; MIP3c; source: endogenous, isolated wild type Chlamydomonas axonemes", "T1 sequence (looked up)": "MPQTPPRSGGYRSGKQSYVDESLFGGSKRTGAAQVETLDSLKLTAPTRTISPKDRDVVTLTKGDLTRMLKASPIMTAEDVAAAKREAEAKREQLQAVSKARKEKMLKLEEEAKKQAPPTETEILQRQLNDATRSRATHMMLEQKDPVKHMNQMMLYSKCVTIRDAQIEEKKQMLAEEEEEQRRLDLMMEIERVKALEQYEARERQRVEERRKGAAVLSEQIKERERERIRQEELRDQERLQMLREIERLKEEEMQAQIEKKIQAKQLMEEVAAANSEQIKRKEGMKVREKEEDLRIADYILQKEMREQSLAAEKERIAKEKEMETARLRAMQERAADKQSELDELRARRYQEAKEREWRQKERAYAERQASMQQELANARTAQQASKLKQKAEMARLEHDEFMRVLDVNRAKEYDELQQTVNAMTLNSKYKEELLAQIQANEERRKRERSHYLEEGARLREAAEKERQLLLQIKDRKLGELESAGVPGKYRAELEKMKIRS", "assay": "cross-linking; EDC-crosslinked wild type axonemes solubilized, crosslinked products immunoprecipitated with anti-FAP45 antibody, LC tandem MS of the precipitates", "conditions": "partners not purified", "data": [{"binder": "B1", "values": [{"measurement": "stoichiometry N", "result": 1}]}]}
